Measurements published in PMC12631696, “Trp101-Mediated Cold Adaptation in Sphingomonas sp. Thioredoxin: Increased α4-Helix Rigidity with Preserved Overall Flexibility” (ACS Omega, 2025).

These substances were tested on O=C(O)c1cc(SSc2ccc([N+](=O)[O-])c(C(=O)O)c2)ccc1[N+](=O)[O-] (assay: purified protein). Settings: Trx pre-reduced with 5 mM DTT, 0.4 μM, 50 mM MOPS pH 7.0, 1 mM EDTA, DTNB 10–150 μM, apparent optimal temperature (40 °C).

Row | Substance | Km [µM] | kcat [s⁻¹]
1 | SpTrx (Sphingomonas sp. PAMC 26621; E43A/E47A) | 44.0 ± 0.1 | 13.1 ± 0.2
2 | SpTrx (Sphingomonas sp. PAMC 26621; E47A) | 39.0 ± 0.1 | 23 ± 0.1
3 | SpTrx (Sphingomonas sp. PAMC 26621; W101A) | 59.9 ± 0.2 | 0.6 ± 0.1
4 | SpTrx (Sphingomonas sp. PAMC 26621; W101F) | 50.7 ± 0.6 | 14.6 ± 0.1

Same assay, conditions: Trx pre-reduced with 5 mM DTT, 0.4 μM, 50 mM MOPS pH 7.0, 1 mM EDTA, DTNB 10–150 μM, apparent optimal temperature (60 °C)

Row | Substance | Km [µM] | kcat [s⁻¹]
5 | SpTrx (Sphingomonas sp. PAMC 26621) | 33.0 ± 0.1 | 26.1 ± 0.1
6 | SpTrx (Sphingomonas sp. PAMC 26621; E43A) | 38.3 ± 0.1 | 23.4 ± 0.1
